Reference: the supplement of paper PMC10567573

B1: DUSP5 (parent)
chain: YSEYPECCVDVKPISQEKIESERA
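Further: lentivirally expressed fusions sorted by FACS into six bins by GFP to DsRed ratio, PSI derived from sequencing read proportions per bin multiplied by bin number.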

Variants of: B1
Experiment: protein stability index of a GFP-peptide fusion (GPS, HEK-293T) (PSI 1-6); higher = more stable
Details: c terminus: a fixed tail appended
With YSEYHECCVDVKPISQEKIESERA [P5H] the protein stability index was 3.39.
With YSEYIECCVDVKPISQEKIESERA [P5I] the protein stability index was 3.96.
In the case of YSEYKECCVDVKPISQEKIESERA [P5K], the protein stability index is reported as 5.16.
In the case of YSEYLECCVDVKPISQEKIESERA [P5L], the protein stability index is reported as 4.28.
With YSEYMECCVDVKPISQEKIESERA [P5M] the protein stability index was 3.98.
Variant YSEYNECCVDVKPISQEKIESERA [P5N] has a protein stability index of 5.38.
For YSEYQECCVDVKPISQEKIESERA [P5Q], the protein stability index was 5.33.
In the case of YSEYRECCVDVKPISQEKIESERA [P5R], the protein stability index is reported as 3.48.
YSEYSECCVDVKPISQEKIESERA [P5S] showed a protein stability index of 4.73.
Variant YSEYTECCVDVKPISQEKIESERA [P5T] has a protein stability index of 4.85.
In the case of YSEYVECCVDVKPISQEKIESERA [P5V], the protein stability index is reported as 4.45.
Work on YSEYWECCVDVKPISQEKIESERA [P5W] yielded a protein stability index of 1.21.
YSEYYECCVDVKPISQEKIESERA [P5Y] showed a protein stability index of 3.9.
YSEYPACCVDVKPISQEKIESERA [E6A] showed a protein stability index of 2.63.
YSEYPCCCVDVKPISQEKIESERA [E6C] gave a protein stability index of 2.6.
With YSEYPDCCVDVKPISQEKIESERA [E6D] the protein stability index was 4.55.
For YSEYPFCCVDVKPISQEKIESERA [E6F], the protein stability index was 2.28.
With YSEYPGCCVDVKPISQEKIESERA [E6G] the protein stability index was 3.36.
Variant YSEYPHCCVDVKPISQEKIESERA [E6H] has a protein stability index of 2.47.
In the case of YSEYPKCCVDVKPISQEKIESERA [E6K], the protein stability index is reported as 1.38.
In the case of YSEYPMCCVDVKPISQEKIESERA [E6M], the protein stability index is reported as 1.63.
With YSEYPNCCVDVKPISQEKIESERA [E6N] the protein stability index was 3.74.
In the case of YSEYPPCCVDVKPISQEKIESERA [E6P], the protein stability index is reported as 2.4.
For YSEYPQCCVDVKPISQEKIESERA [E6Q], the protein stability index was 2.67.
YSEYPRCCVDVKPISQEKIESERA [E6R] showed a protein stability index of 1.83.
Work on YSEYPSCCVDVKPISQEKIESERA [E6S] yielded a protein stability index of 2.9.
With YSEYPTCCVDVKPISQEKIESERA [E6T] the protein stability index was 2.75.
YSEYPVCCVDVKPISQEKIESERA [E6V] gave a protein stability index of 2.37.
In the case of YSEYPWCCVDVKPISQEKIESERA [E6W], the protein stability index is reported as 3.98.
YSEYPYCCVDVKPISQEKIESERA [E6Y] showed a protein stability index of 1.44.
Work on YSEYPEACVDVKPISQEKIESERA [C7A] yielded a protein stability index of 4.16.
In the case of YSEYPEDCVDVKPISQEKIESERA [C7D], the protein stability index is reported as 4.89.
YSEYPEECVDVKPISQEKIESERA [C7E] gave a protein stability index of 5.76.
In the case of YSEYPEFCVDVKPISQEKIESERA [C7F], the protein stability index is reported as 2.28.
Work on YSEYPEGCVDVKPISQEKIESERA [C7G] yielded a protein stability index of 5.38.
YSEYPEHCVDVKPISQEKIESERA [C7H] gave a protein stability index of 4.17.
YSEYPEICVDVKPISQEKIESERA [C7I] showed a protein stability index of 3.37.
In the case of YSEYPEKCVDVKPISQEKIESERA [C7K], the protein stability index is reported as 4.6.
With YSEYPELCVDVKPISQEKIESERA [C7L] the protein stability index was 3.75.
For YSEYPEMCVDVKPISQEKIESERA [C7M], the protein stability index was 3.81.
With YSEYPENCVDVKPISQEKIESERA [C7N] the protein stability index was 4.64.
Variant YSEYPEPCVDVKPISQEKIESERA [C7P] has a protein stability index of 5.4.
YSEYPEQCVDVKPISQEKIESERA [C7Q] showed a protein stability index of 5.35.
In the case of YSEYPERCVDVKPISQEKIESERA [C7R], the protein stability index is reported as 4.26.
Variant YSEYPESCVDVKPISQEKIESERA [C7S] has a protein stability index of 5.47.
For YSEYPETCVDVKPISQEKIESERA [C7T], the protein stability index was 4.81.
With YSEYPEVCVDVKPISQEKIESERA [C7V] the protein stability index was 3.95.
YSEYPEWCVDVKPISQEKIESERA [C7W] showed a protein stability index of 2.95.
With YSEYPEYCVDVKPISQEKIESERA [C7Y] the protein stability index was 2.02.
In the case of YSEYPECAVDVKPISQEKIESERA [C8A], the protein stability index is reported as 4.56.
With YSEYPECDVDVKPISQEKIESERA [C8D] the protein stability index was 4.84.
Variant YSEYPECEVDVKPISQEKIESERA [C8E] has a protein stability index of 4.85.
YSEYPECGVDVKPISQEKIESERA [C8G] showed a protein stability index of 5.25.
In the case of YSEYPECHVDVKPISQEKIESERA [C8H], the protein stability index is reported as 5.2.
Variant YSEYPECIVDVKPISQEKIESERA [C8I] has a protein stability index of 3.77.
Work on YSEYPECKVDVKPISQEKIESERA [C8K] yielded a protein stability index of 4.87.
YSEYPECLVDVKPISQEKIESERA [C8L] gave a protein stability index of 4.07.
Variant YSEYPECMVDVKPISQEKIESERA [C8M] has a protein stability index of 4.59.
With YSEYPECNVDVKPISQEKIESERA [C8N] the protein stability index was 5.64.
Variant YSEYPECPVDVKPISQEKIESERA [C8P] has a protein stability index of 5.6.
YSEYPECQVDVKPISQEKIESERA [C8Q] showed a protein stability index of 4.58.
With YSEYPECRVDVKPISQEKIESERA [C8R] the protein stability index was 5.24.
Work on YSEYPECSVDVKPISQEKIESERA [C8S] yielded a protein stability index of 4.66.
Work on YSEYPECTVDVKPISQEKIESERA [C8T] yielded a protein stability index of 5.41.
Work on YSEYPECVVDVKPISQEKIESERA [C8V] yielded a protein stability index of 4.35.
For YSEYPECWVDVKPISQEKIESERA [C8W], the protein stability index was 1.32.
YSEYPECYVDVKPISQEKIESERA [C8Y] showed a protein stability index of 2.15.
YSEYPECCADVKPISQEKIESERA [V9A] showed a protein stability index of 4.26.
YSEYPECCCDVKPISQEKIESERA [V9C] gave a protein stability index of 4.12.
Work on YSEYPECCDDVKPISQEKIESERA [V9D] yielded a protein stability index of 4.12.
For YSEYPECCEDVKPISQEKIESERA [V9E], the protein stability index was 5.56.
In the case of YSEYPECCFDVKPISQEKIESERA [V9F], the protein stability index is reported as 3.76.
For YSEYPECCGDVKPISQEKIESERA [V9G], the protein stability index was 4.4.
For YSEYPECCHDVKPISQEKIESERA [V9H], the protein stability index was 4.39.
In the case of YSEYPECCIDVKPISQEKIESERA [V9I], the protein stability index is reported as 4.35.
With YSEYPECCKDVKPISQEKIESERA [V9K] the protein stability index was 4.53.
Work on YSEYPECCLDVKPISQEKIESERA [V9L] yielded a protein stability index of 4.7.
Work on YSEYPECCMDVKPISQEKIESERA [V9M] yielded a protein stability index of 3.77.
YSEYPECCNDVKPISQEKIESERA [V9N] gave a protein stability index of 5.56.
With YSEYPECCPDVKPISQEKIESERA [V9P] the protein stability index was 4.24.
YSEYPECCQDVKPISQEKIESERA [V9Q] gave a protein stability index of 4.47.
With YSEYPECCRDVKPISQEKIESERA [V9R] the protein stability index was 2.94.
YSEYPECCSDVKPISQEKIESERA [V9S] showed a protein stability index of 4.93.
With YSEYPECCTDVKPISQEKIESERA [V9T] the protein stability index was 4.4.
YSEYPECCWDVKPISQEKIESERA [V9W] showed a protein stability index of 3.39.
With YSEYPECCYDVKPISQEKIESERA [V9Y] the protein stability index was 4.04.
YSEYPECCVAVKPISQEKIESERA [D10A] gave a protein stability index of 3.56.
Variant YSEYPECCVCVKPISQEKIESERA [D10C] has a protein stability index of 2.69.
For YSEYPECCVEVKPISQEKIESERA [D10E], the protein stability index was 4.66.
YSEYPECCVFVKPISQEKIESERA [D10F] gave a protein stability index of 2.47.
Work on YSEYPECCVHVKPISQEKIESERA [D10H] yielded a protein stability index of 3.15.
In the case of YSEYPECCVIVKPISQEKIESERA [D10I], the protein stability index is reported as 2.6.
Variant YSEYPECCVKVKPISQEKIESERA [D10K] has a protein stability index of 3.71.
For YSEYPECCVLVKPISQEKIESERA [D10L], the protein stability index was 2.98.
